{
  "source": "patent US20240369568A1",
  "assay_in_all_cases": "SPR, release and stability method, specific binding activity",
  "key": {"[1]": {"molecular_target": "BCMA (the 'Antigen' of the SPR antigen binding assay) (human) (UniProt Q02223)", "sequence (Q02223 1-54 limits assumed)": "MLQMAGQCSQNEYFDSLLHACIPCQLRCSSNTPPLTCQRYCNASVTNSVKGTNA"}, "FcγRIIIa": {"molecular_target": "FcγRIIIa (UniProt P08637)", "sequence (P08637 17-208 limits assumed)": "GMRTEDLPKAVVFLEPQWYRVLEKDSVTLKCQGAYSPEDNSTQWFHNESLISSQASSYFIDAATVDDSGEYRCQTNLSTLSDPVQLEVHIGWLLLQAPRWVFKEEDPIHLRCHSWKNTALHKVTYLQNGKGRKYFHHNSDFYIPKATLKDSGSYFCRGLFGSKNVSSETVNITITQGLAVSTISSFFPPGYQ"}, "FcRn": {"molecular_target": "FcRn (UniProt P55899)", "sequence (P55899 24-297 limits assumed, chain 1 of 2)": "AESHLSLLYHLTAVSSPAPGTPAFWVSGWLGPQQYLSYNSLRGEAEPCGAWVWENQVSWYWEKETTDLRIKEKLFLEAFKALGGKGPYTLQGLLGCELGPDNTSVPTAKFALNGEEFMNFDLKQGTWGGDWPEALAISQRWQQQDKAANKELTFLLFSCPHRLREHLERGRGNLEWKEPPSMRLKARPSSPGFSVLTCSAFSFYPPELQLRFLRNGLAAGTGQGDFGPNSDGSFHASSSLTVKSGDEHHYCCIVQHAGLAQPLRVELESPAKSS", "sequence (P61769 21-119 limits assumed, chain 2 of 2, further chain)": "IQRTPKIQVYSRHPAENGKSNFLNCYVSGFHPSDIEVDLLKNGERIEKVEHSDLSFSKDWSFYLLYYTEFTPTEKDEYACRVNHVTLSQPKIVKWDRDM"}},
  "data": [
    {"substance": "Control (sample of Table 11)", "values": [
      {"measurement": "Antigen Binding (%) (specific binding activity)", "setting": "[1]", "result": 96, "unit": "%"},
      {"measurement": "FcyRIIIa Binding (%) (specific binding activity)", "setting": "FcγRIIIa", "result": 97, "unit": "%"},
      {"measurement": "FcRNn Binding (%) (specific binding activity)", "setting": "FcRn", "result": 101, "unit": "%"}
    ]}
  ]
}
